Test system: K4 kissing-loop RNA reporter
Assay: apparent KD of K4 kissing-loop reporter; higher = weaker reporter binding
Settings: Eterna round: R107
Procedure: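 RNA-MaP round R107: designed RNA switches with theophylline, tryptophan, arginine or FMN aptamers are transcribed on-chip within common flanks. They are titrated with a labelled K4 kissing-loop RNA reporter in RNA-MaP buffer (100 mM Tris pH 7.5, 80 mM KCl, 4 mM MgCl2), without ligand or with the indicated ligand. Median apparent KD per design.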

[1] = input ligand: theophylline 20 uM
[2] = input ligand: tryptophan 2.4 mM
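Further: bound reporter read as fluorescence of individual clusters on recovered sequencing chips by microscopy, with normalized cluster intensities fitted with a binding model.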

Row | Sequence | apparent KD of K4 kissing-loop reporter (input ligand: FMN 200 uM) [nM] | apparent KD of K4 kissing-loop reporter (input ligand: arginine 13.2 mM) [nM] | apparent KD of K4 kissing-loop reporter (input ligand: none) [nM] | apparent KD of K4 kissing-loop reporter [1] [nM] | apparent KD of K4 kissing-loop reporter [2] [nM]
1 | AAAUAAAUCGGAGGAUAUCCUUCCCACGUCGAAGUACCGUGCUUGAUGGAGUGAUGUUCGAUCAGAGGAGAAGGCCGAUAAAUAA [Same State FMN B GF20] | 1040 | 732 | 1040 | 924 | 777
2 | AAAUAAUAAAUGCAGCCAGUGAUGUUGGAAGGAGCGUGCGAAAGCACAGGUAGGUCGCCAACCAAAGCUGGAAACAGCAACUGCA [#SwitchBubble 3 #K4Early] | 226 | 129 | 84.5 | 129 | 99.1
3 | AAAUACAUUUUAUUAUAUAACUUUUCAGAAGGAGCGUGGAAGUUCACAGGUAGGUCGCUGAAUAUUGGACUAGUGAUGUUAGUUA [JR_Nu_SSArginiA_Sub021] | 222 | 217 | 253 | 225 | 179
4 | AAAUAGAUCAGUCACCCAGUGAUGUUGGAAGGAGCGUGCGAAAGCACAGGUAGGUCGCCAAAACCUAAGUGGCUGAUCAAAAUAA [#SwitchBubble 4 #K4Early] | 838 | 445 | 819 | 523 | 587
5 | AAAUAGAUCAGUCAUCCAGUGAUGUUGGAAGGAGCGUGCGAAAGCACAGGUAGGUCGCCAAAAUAAAAGUGGCUGAUCAAAAUAA | 629 | 374 | 302 | 594 | 302
6 | AAAUAUUCGAGUGAUGUUCGAUAAAUUUCAGAGGAUAUGCUUAAAAGCAGAAGGCUGUAUUUCUAUUUGUUAUGAAAUUUUAUAA [JR_ExcFMNA_Sub003] | 103 | 113 | 87.3 | 109 | 73.3
7 | AAAUUCUUUUUUUUAUUUAACUUUUCAGAAGGAGCGUGGUAGUACACAGGUAGGUCGCUGAAUAUAAGACUAGUGAUGUUAGUUA [JR_SSArginiA_Sub009] | 172 | 190 | 235 | 215 | 165
8 | AAAUUUAAUAUAUUUAAUUAAUUAAGUGAUACCAGACAUUAAUAAGUCCCUUGGCAGCGCAAUGCAGUGAUGUUGCUUAUAAUAA [#18 K4 Theophylline A Same State] | 56.1 | 82.9 | 50.1 | 136 | 48
9 | AAAUUUAAUAUAUUUAAUUAAUUAUGUGAUACCAGACAUUAAUAAGUCCCUUGGCAGCACAAUGCAGUGAUGUUGCUUAUAAUAA [JR_SSTheophyA_Sub010] | 85.7 | 117 | 86.9 | 138 | 70.3
10 | AACCACUCGUUACAUCACUAUCGAGUGGAACGAGGACCGGUACGGCCGCCACUCGAAUAGAUGCAGUGAUGUUGCAUCUUGGAAU [KL-SSTryp-A (BrourdMod)4 #dotplot2 strengthened] | 181 | 141 | 163 | 156 | 132
11 | AACCACUCGUUACAUCACUAUCGAGUGGAACGAGGACCGGUACGGCCGCCACUCGAUAACUUGCAGUGAUGUUGCAAGUAAGAAU [(T)''-(K)'-(T)'-(T1)-(T2)-(K1)-(K2)_Design9] | 542 | 343 | 472 | 381 | 289
12 | AACCACUCGUUACAUCACUAUCGAGUGGAACGAGGACCGGUACGGCCGCCACUCGGUAUCUUGCAGUGAUGUUGCAAGAAAGAAU [KL-SSTryp-A #dotplot2 strengthened] | 212 | 199 | 256 | 164 | 163
13 | AACUCUCACUGGAGUGAUGUUCUGGAAAACCGAGGACCGGUACGGCCGCCACUCGGAAAUGAGAGAGUCCUACGAAAAGUAGGAC [Omei inspired 1] | 191 | 213 | 217 | 255 | 139
14 | AACUGUCAAGGACAACAUUACUGAGGUGAUACCAGCAUCGAAAGAUGCCCUUGGCAGCGCCAACUUGCAGUGAUGUUGCAAGUAA [BrourdMod 1 - Jieux - Exclusion - Theophylline A] | 169 | 141 | 157 | 159 | 164
15 | AACUUAAUUUAUAAGCAGUGAUGUUGCUCACGAGGACCGGUACGGCCGCCACUCGAUCGGACUUAGGUCUUCAAUUAUUUCUUAA [JR_ExcTryptoA_Sub018] | 114 | 157 | 137 | 140 | 121
16 | AAGAAGAAUGGAAGGAGCGAGCAGAUAUAACCAGUGAUGUUGGAAAGCCUUAUUGCUUAAGCUCAGGUAGGUCGCCAAGAAAAGA [whbob_Ex_Arginine_B_2t151] | 162 | 153 | 172 | 193 | 212

Row | Sequence | apparent KD of K4 kissing-loop reporter (input ligand: FMN 200 uM) [nM] | apparent KD of K4 kissing-loop reporter (input ligand: arginine 13.2 mM) [nM] | apparent KD of K4 kissing-loop reporter (input ligand: none) [nM] | apparent KD of K4 kissing-loop reporter [1] [nM] | apparent KD of K4 kissing-loop reporter [2] [nM]
17 | AAGACUUGCAUCGAUACCAGCCCAGUGAUGUUGGGCUGCUCUCCAUGGGUGCCAGACACGGGCCCUUGGCAGCGAGGUAAGGCCC [Soveri] | 129 | 110 | 113 | 109 | 106
18 | AAGAGGUAGGCGGCCGCCACUUGUUGUGAACACAUACGAGCCAGUGAUGUUGGUAUUGUGUGCGGAAGGACCGGGCCUACCUGAA [Exclusion - Tryptophan B (Freestyle 21)] | 146 | 173 | 136 | 46 | 140
19 | AAGCAGUCACUCGACGCCAUCGAAGAUGGGCGAGGACCGGUACGGCCGCCACUCGGAGUGAUGUUCUGAAGACUGCAAAAUAAAA [MatMod 7 - Jieux - Exclusion - Tryptophan A] | 235 | 166 | 153 | 115 | 160
20 | AAGCAGUCCCUCGAAGCCAUCGAAGAUGGGCGAGGACCGGUACGGCCGCCACUCGGAGUGAUGUUCCGAAGACUGCAAAAUAAAA [MatMod 3 - Jieux - Exclusion - Tryptophan A] | 367 | 316 | 192 | 273 | 185
21 | AAGCGUAAAAUGGCGGACAUACUGCUCCCACGAGGACCGGUACGGCCGCCACUCGAAUGCGGCAGUGAUGUUGCCGCCUUCGCGU [Zauslereed] | 74 | 68.3 | 62.8 | 69.9 | 62.5
22 | AAGCGUGUGGCGGCCGCCACUAGUCUCCAGUGAUGUUGGAGAUAUCACGUAAGUGAUAUCCGACAUAGGACCGGGCCAUAUGGAA [Same State - Tryptophan B (Freestyle 22)] | 587 | 299 | 813 | 612 | 207
23 | AAGGGCUAGGCGGCCGCCACUGGUCGUGUACACAUACAAACCAGUGAUGUUGGUAUUGUAUGCGACAGGACCGGGCCUAGCCGAA [Exclusion - Tryptophan B (Freestyle 28)] | 280 | 229 | 323 | 258 | 481
24 | AAGGGCUAGGCGGCCGCCACUGGUCGUGUACACAUACAGACCAGUGAUGUUGGUAUUGUAUGCGACAGGACCGGGCCUAGCCCAA [Exclusion - Tryptophan B (Freestyle 29)] | 267 | 230 | 263 | 247 | 445
25 | AAGGGCUAGGCGGCCGCCACUGGUCGUGUACACAUACGAACCAGUGAUGUUGGUAUUGUAUGCGACAGGACCGGGCCUAGCCGAA [Exclusion - Tryptophan B (Freestyle 27)] | 313 | 194 | 249 | 364 | 291
26 | AAGGUGAUCCUCGAUACCAGCUCAAAAUGAGUGAUGUUCAUGAAAGCCUGGAAACAGGCGAGCCCUUGGCAGCGAGUUACAUCAA [KL-SSTheoB8] | 204 | 162 | 162 | 134 | 154
27 | AAGUAGUCCCUUGUUGUCAUCGAAGAUGAACGAGGACCGGUACGGCCGCCACUCGGAGUGAUGUUCCGAUGGCUGCAAAAUAAAA [MatMod 22 - Jieux - Exclusion - Tryptophan A] | 103 | 88.9 | 92 | 91.4 | 101
28 | AAGUCAUAGGCAGGAUAUGCAUAGUAAUAAGGCAAUAUCUACGUAUAGAGUGAUGUUUUGUACCAGGCAGAAGGGCUACAUCAGU [FMN B Excl V9 (+4A/C)] | 635 | 407 | 514 | 554 | 424
29 | AAGUCAUAGGCAGGAUAUGCUUAGUAAUAAGGCCAUAUAUACGUAUAGAGUGAUGUUUUGUACCAGGCAGAAGGGCUACAUCAGU [FMN B Excl V8 (+2A)] | 541 | 276 | 373 | 532 | 544
30 | AAGUCAUAUAGAAGGAGCGUGUUUUAUAAUUUAUUUUCAUGAUCGAGUGAUGUUCGAUAUACACAGGUAGGUCGCUGUAUAAUAA [hbob_SS_Arginine_B_2t140] | 114 | 144 | 129 | 133 | 101
31 | AAGUGAUGUUGUAGUGAUGUUGUGAUGUUGCAGGAUAUAUAGUGAUGUAGAAGGGUAAGGACUGUUUUUUUUUUUGAGUGAUGUU [ookooyzrmullin] | 94.2 | 41.4 | 70.5 | 56.8 | 73.3
